Source: patent US20120129757A1, “COMPOSITIONS AND METHODS FOR PROMOTING VASCULAR BARRIER FUNCTION AND TREATING PULONARY FIBROSIS” (priority 2008, published 2012)
Entries after “also recorded” stand apart in the source; their conditions may differ.

What was measured:
BL/6 mice = type: in vivo, mouse
[1] = test system: VE-cadherin/p120-catenin interaction; assay: Immunoprecipitation of VE-cadherin, immunoblot for p120-catenin; type: cell-based, human; details: HMVEC-lung, 10 ng/mL IL-1β 10 minutes
Experimental: Immunoprecipitation. HMVEC-lung were treated with Slit2N or Mock in 0.1% FBS EBM-2 for 30 minutes. Cells were then stimulated with 10 ng/mL IL-1β for 10 minutes. HMVEC-lung were then washed with ice-cold PBS and lysed with ice-cold lysis buffer (10 mM Tris-HCl pH7.4, 50 mM NaCl, 1% NP-40 and 10% glycerol) supplemented with protease inhibitors, phosphatase inhibitors and 1 mM DTT. Cell lysates were incubated on ice for 30 min and centrifuged at 13,000 g for 15 minutes to pellet cell debris. Protein concentrations were determined by BCA assay (PIERCE) and 0.5 mg lysate were incubated with 8 μg of VE-cadherin antibody (Cell Signaling) and protein A/G sepharose (Santa Cruz) for 1 hour at 4° C. Complexes were washed three times with lysis buffer. The immunoprecipitates were subjected to Western blot analysis.

HMVEC-lung [2] = assay: Immunofluorescence for VE-cadherin and p120-catenin after IL-1β stimulation; type: cell-based, human; details: 10 ng/mL IL-1β 3 hours, Slit2N pre-treatment 30 minutes
Experimental: Immunofluorescence. Immunofluorescence was performed as described in Jones, C. […] 2008. Cells were pre-treated with Slit2N or Mock for 30 minutes followed by stimulation with 10 ng/mL IL-1β for 3 hours. Primary antibodies to VE-cadherin (BD biosciences) or p120-catenin (Santa Cruz) were applied at 4° C. overnight. Images are representative of three independent experiments.

VE-cadherin = VE-cadherin internalization assay; type: cell-based, human; details: HMVEC-lung, 10 ng/ml IL-1β 1 hour, 10 nM Slit2N
Experimental: Internalization assay. VE-cadherin internalization was performed as described Xiao, K., J. Garner, K. M. Buckley, P. A. Vincent, C. M. Chiasson, E. Dejana, V. Faundez, and A. P. Kowalczyk. 2005. p120-Catenin regulates clathrin-dependent endocytosis of VE-cadherin. Mol Biol Cell 16:5141-5151. In brief, HMVEC-lung were seeded onto chamber slides and cultured for 72 hours. The media was then removed and the cells labeled for 30 minutes at 4° C. with anti-VE-cadherin antibody (clone BV6, RDI Fitzgerald). Cells were then pre-treated with Slit2N or Mock for 30 minutes. Excess antibody was removed by washing twice on ice with ice-cold media. Chamber slides were moved to 37° C. and incubated for 1 hour with 10 ng/ml IL-1β and 0.6 mM primaquine in the presence of 10 nM Slit2N or Mock. Cells were acid-washed to strip the surface-bound VE-cadherin. Monolayers were washed, fixed, and permeablized. Internalized VE-cadherin antibody was detected with Alexa 488-conjugated donkey anti-mouse IgG (Molecular Probes). Images are representative of four independent experiments.

primary human PMNs = assay: Neutrophil migration to fMLP, primary hPMNs; type: cell-based; details: fMLP 10 μM, 2 h
Experimental: Neutrophil migration. HL-60 cells were grown under standard conditions with RPMI-1640 media supplemented with 10% FBS and 1% pen/step. Cells induced with 1.2% dimethyl sulphoxide (DMSO) were obtained by seeding HL-60 cells at 3×10^6 per mL in growth media and culturing for 4 6 days (Collins, S. J., F. W. Ruscetti, R. E. Gallagher, and R. C. Gallo. 1978. Terminal differentiation of human promyelocytic leukemia cells induced by dimethyl sulfoxide and other polar compounds. Proc Natl Acad Sci USA 75:2458-2462). hPMNs were isolated from healthy adult donor whole blood with ACD using techniques described in Zimmerman, G. A., T. M. McIntyre, and S. M. Prescott. 1985. Thrombin stimulates the adherence of neutrophils to human endothelial cells in vitro. J Clin Invest 76:2235-2246. The leukocyte chemoattractant fMLP (10 μM) along with Slit2 or Mock was placed in the lower wells of a 48-well chemotaxis chamber (Neuroprobe). A fibronectin coated (over night at 4° C.) polycarbonate membrane (Neuroprobe, 5 μm) was placed between the chemoattractant and the cells. HL-60 cells induced with DMSO or hPMNs (50 μl, 50,000 cells) were added to the upper wells. […] Migrated cells in 5 high power fields were counted and migration expressed as the percent of cells migrated compared to cells migrated towards fMLP in the absence of Slit2 or Mock.

HMVEC-lung [3] = assay: Subcellular (membrane) fractionation and immunoblotting; type: cell-based, human
Experimental: Subcellular fractionation. HMVEC-lung were treated with Slit2N or Mock in 0.1% FBS EBM-2 for 1.5 hours. Cells were then washed twice with ice-cold PBS containing Ca^2+/Mg^2+, once with HLB buffer (10 mM Tris-HCl PH7.4, 5 mM KCl, 1 mM MgCl2), and collected in HLB buffer supplemented with protease inhibitors (Roche), phosphatase inhibitors (Sigma) and 1 mM DTT. Cells were then dounce-homogenized (20 strokes). The homogenate was centrifuged at 400 g for 10 minutes at 4° C. to pellet cell debris. The resulting supernatant was centrifuged again at 16,000 g for 30 minutes at 4° C. The pellet was washed once with HLB and resuspended in RIPA buffer for 30 minutes at 4° C. The resuspended pellet was centrifuged (16,000 g/15 min at 4° C.), and the resulting supernatant was saved as soluble membrane fraction. To obtain the total cell lysate an aliquot was saved prior to dounce homogenization. RIPA buffer was added to this aliquot and centrifuged at 13,000 g for 10 minutes at 4° C. The supernatant was saved and used as total cell lysate. Antibodies to VE-cadherin were obtained from Cell Signaling, and p120-catenin and β-catenin from BD biosciences.

[4] = test system: H5N1 virus (Influenza A, Duck/MN/1525/81); type: in vivo, BALB/c mice
C57BL/6 mice [5] = type: in vivo, mouse
C57BL/6 mice [6] = type: in vivo, mouse; remark: listed apart in the source
endothelial cell = assay: VEGF mediated endothelial cell migration; type: cell-based; details: Slit constructs 2 nM
[7] = Slit2N vs Mock, membrane fraction
[8] = 20 μg VE-cadherin blocking antibody (BV13) IV, LPS IT
[9] = Robo4+/+ mice, 24 hours after LPS, dose-dependent

COc1nc(-c2ccc3c(c2)OCO3)n(-c2ccc(NC(=O)CSc3ccccc3)cc2)n1 [SecinH3, reference compound]
Bleomycin-induced fibrosis (Sircol collagen assay) (BL/6 mice; BL/6 mice, 0.05 U Bleomycin intranasal, 100 uL of 30 uM SecinH3 i.p. twice a day, day 11): inhibits

B1: Slit2N: N-terminal active fragment of Slit2 released by proteolytic cleavage; 150 kD recombinant protein, SEQ ID NO: 4 (protein, listed as Homo sapiens)
chain: QACPAQCSCSGSTVDCHGLALRSVPRNIPRNTERLDLNGNNITRITKTDFAGLRHLRVLQLMENKISTIERGAFQDLKELERLRLNRNHLQLFPELLFLGTAKLYRLDLSENQIQAIPRKAFRGAVDIKNLQLDYNQISCIEDGAFRALRDLEVLTLNNNNITRLSVASFNHMPKLRTFRLHSNNLYCDCHLAWLSDWLRQRPRVGLYTQCMGPSHLRGHNVAEVQKREFVCSDEEEGHQSFMAPSCSVLHCPAACTCSNNIVDCRGKGLTEIPTNLPETITEIRLEQNTIKVIPPGAFSPYKKLRRIDLSNNQISELAPDAFQGLRSLNSLVLYGNKITELPKSLFEGLFSLQLLLLNANKINCLRVDAFQDLHNLNLLSLYDNKLQTIAKGTFSPLRAIQTMHLAQNPFICDCHLKWLADYLHTNPIETSGARCTSPRRLANKRIGQIKSKKFRCSGTEDYRSKLSGDCFADLACPEKCRCEGTTVDCSNQKLNKIPEHIPQYTAELRLNNNEFTVLEATGIFKKLPQLRKINFSNNKITDIEEGAFEGASGVNEILLTSNRLENVQHKMFKGLESLKTLMLRSNRITCVGNDSFIGLSSVRLLSLYDNQITTVAPGAFDTLHSLSTLNLLANPFNCNCYLAWLGEWLRKKRIVTGNPRCQKPYFLKEIPIQDVAIQDFTCDDGNDDNSCSPLSRCPTECTCLDTVVRCSNKGLKVLPKGIPRDVTELYLDGNQFTLVPKELSNYKHLTLIDLSNNRISTLSNQSFSNMTQLLTLILSYNRLRCIPPRTFDGLKSLRLLSLHGNDISVVPEGAFNDLSALSHLAIGANPLYCDCNMQWLSDWVKSEYKEPGIARCAGPGEMADKLLLTTPSKKFTCQGPVDVNILAKCNPCLSNPCKNDGTCNSDPVDFYRCTCPYGFKGQDCDVPIHACISNPCKHGGTCHLKEGEEDGFWCICADGFEGENCEVNVDDCEDNDCENNSTCVDGINNYTCLCPPEYTGELCEEKLDFCAQDLNPCQHDSKCILTPKGFKCDCTPGYVGEHCDIDFDDCQDNKCKNGAHCTDAVNGYTCICPEGYSGLFCEFSPPMVLPRT
association of VE-cadherin and p120-catenin after IL-1β [1]: restores | IL-1β decrease of p120-catenin at the cell surface (HMVEC-lung [2]): reversed this effect | IL-1β reduction of VE-cadherin levels at the cell surface (HMVEC-lung [2]): negated this effect | internalization of VE-cadherin induced by IL-1β (VE-cadherin): blocks | neutrophil migration to fMLP (primary human PMNs): did not respond | VE-cadherin levels at the cell surface junctions (HMVEC-lung [3]; Slit2N vs Mock 1.5 hours, membrane fraction and immunofluorescence): significantly increased | cell surface p120-catenin expression (HMVEC-lung [3]; [7]): increased | other junction or catenin family members (β-catenin) (HMVEC-lung [3]; [7]): no observed effect | lung pathology (H&E) ([4]; 6 days after infection, compared to mock treated mice): decreased in severity | level of inflammatory cytokine release in lung homogenates ([4]; 6 days post-infection): does not significantly reduce | lung viral titers (viral load) ([4]; 6 days post-infection): did not alter | mortality after H5N1 infection ([4]; 21 days, 1.56 μg IV daily for 5 days): reduced | Bleomycin-induced pulmonary fibrosis (Sircol collagen) (BL/6 mice; Robo4+/+ mice, day 11, 5 μg daily i.p.): significantly reduced | Bleomycin-induced EBA accumulation in the lung (BL/6 mice; Robo4+/+ mice, eleven days after Bleomycin, 5 μg daily i.p.): significantly reduced | histologic examination of the lung, trichrome stain (collagen deposition) (BL/6 mice; Robo4-dependent manner): confirmed the effect | effect on Bleomycin-induced EBA accumulation in the lung, Robo4-null mice (BL/6 mice; Robo4AP/AP mice): lost | effect on Bleomycin-induced pulmonary fibrosis, Robo4-null mice (BL/6 mice; Robo4AP/AP mice): lost | survival of mice exposed to CLP-induced sepsis (C57BL/6 mice [5]; mouse, in vivo, ip): ~80% | expression of a panel of cytokines and chemokines in plasma (C57BL/6 mice [5]; six hours after CLP): did not alter | inflammatory cell infiltration in BALF in the presence of a VE-cadherin blocking antibody (C57BL/6 mice [6]; [8]): not | protein exudates in BALF in the presence of a VE-cadherin blocking antibody (C57BL/6 mice [6]; [8]): not | inflammatory cell infiltration in BALF in the presence of a control IgG antibody (C57BL/6 mice [6]; 20 μg control IgG IV, LPS IT): reduced | protein exudates in BALF in the presence of a control IgG antibody (C57BL/6 mice [6]; 20 μg control IgG IV, LPS IT): reduced | vascular leak in the lungs (Evans Blue Albumin) (C57BL/6 mice [6]; LPS treated Robo4+/+ mice, 10 μg LPS IT, 3.5 μg Slit2N IV): significantly reduces | effect on vascular leak in the lungs (Evans Blue Albumin), Robo4-null mice (C57BL/6 mice [6]; LPS treated Robo4AP/AP mice): lost | LPS-induced lung inflammation / ALI by histological examination (H&E, quantitative histology) (C57BL/6 mice [6]; Robo4+/+ mice): reducing; also recorded: reduces | inflammatory cell accumulation in BALF (C57BL/6 mice [6]; [9]): reduced | protein exudates in BALF (C57BL/6 mice [6]; [9]): reduced | inhibition of leukocyte accumulation in BALF, Robo4-null mice (C57BL/6 mice [6]; Robo4AP/AP mice): lost | inhibition of protein accumulation in BALF, Robo4-null mice (C57BL/6 mice [6]; Robo4AP/AP mice): lost

B2: Slit2-D1: Recombinant Slit2 construct, 40 kD, SEQ ID NO: 7 (protein, listed as Homo sapiens)
chain: ILNKVAPQACPAQCSCSGSTVDCHGLALRSVPRNIPRNTERLDLNGNNITRITKTDFAGLRHLRVLQLMENKISTIERGAFQDLKELERLRLNRNHLQLFPELLFLGTAKLYRLDLSENQIQAIPRKAFRGAVDIKNLQLDYNQISCIEDGAFRALRDLEVLTLNNNNITRLSVASFNHMPKLRTFRLHSNNLYCDCHLAWLSDWLRQRPRVGLYTQCMGPSHLRGHNVAEVQKREFVCS
Inhibition of VEGF mediated endothelial cell migration (endothelial cell): active
